Paper PMC5726920

What was measured:
[1] = biological target: triosephosphate isomerase, isoform 2, initiator methionine removed; assay: native MS
[2] = biological target: 10 kDa heat shock protein; assay: native MS

Sequence of triosephosphate isomerase, isoform 2, initiator methionine removed (enzyme) (P60174 2-249): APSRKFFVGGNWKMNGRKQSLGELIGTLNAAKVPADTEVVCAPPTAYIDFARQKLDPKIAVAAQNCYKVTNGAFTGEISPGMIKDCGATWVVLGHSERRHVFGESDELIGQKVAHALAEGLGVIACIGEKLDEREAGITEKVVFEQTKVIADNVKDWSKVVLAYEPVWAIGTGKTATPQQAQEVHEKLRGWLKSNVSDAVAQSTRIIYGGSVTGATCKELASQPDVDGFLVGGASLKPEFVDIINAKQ

stoichiometry N [1]	stoichiometry N [2]	Substance
2	–	triosephosphate isomerase, isoform 2, initiator methionine removed (enzyme)
–	7	10 kDa heat shock protein (natural protein)
